Assay in all cases: SPR
The target in assay [1] is Glycosylated human basigin (BSG-2, mammalian cell-expressed) (human).
Assay [2] has as its target Nonglycosylated human basigin ectodomain (BSG-2, E. coli-expressed) (human).
Assay [3] has as its target Human IgG1 CR3022 antibody (human).

Sequence of Human IgG1 CR3022 antibody (human) (heavy, as listed by the source, chain 1 of 2): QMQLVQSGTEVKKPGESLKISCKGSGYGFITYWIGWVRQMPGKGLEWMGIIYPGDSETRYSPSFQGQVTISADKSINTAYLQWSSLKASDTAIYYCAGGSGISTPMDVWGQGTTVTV
Sequence of Human IgG1 CR3022 antibody (human) (light, as listed by the source, chain 2 of 2): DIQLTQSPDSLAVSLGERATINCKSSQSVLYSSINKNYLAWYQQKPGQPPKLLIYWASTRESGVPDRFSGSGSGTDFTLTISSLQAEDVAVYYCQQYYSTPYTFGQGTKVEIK

On to “Plasmodium falciparum reticulocyte-binding protein homolog 5 (recombinant RH5) (from UniProt Q8IFM5 26-526) (ligand)”, for which the Kd in assay [1] came to 665 nM; in assay [2], 925 nM.

In assay [3], “SARS-CoV-2 spike receptor binding domain (from UniProt P0DTC2 319-541) (domain or fragment)” yielded a Kd of 190 nM.

A word on the Kd: it is a measure of binding affinity in units of concentration. A higher Kd goes with weaker binding.
